How the values were obtained:
dpo3b_bacsu dnaN = dpo3b_bacsu dnaN (UniProt P05649)
dnaa_bacsu dnaA = dnaa_bacsu dnaA (UniProt P05648)
tlpa_bacsu tlpA = tlpa_bacsu tlpA (UniProt P39216)
acub_bacsu acuB = acub_bacsu acuB (UniProt P39066)
Sequence of acub_bacsu acuB (P39066 whole entry): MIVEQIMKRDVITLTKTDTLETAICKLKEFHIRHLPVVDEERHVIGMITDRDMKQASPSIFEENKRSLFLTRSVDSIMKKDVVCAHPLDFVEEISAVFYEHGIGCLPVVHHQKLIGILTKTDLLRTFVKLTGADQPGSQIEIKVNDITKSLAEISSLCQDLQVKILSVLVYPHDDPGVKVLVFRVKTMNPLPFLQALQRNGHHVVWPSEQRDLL

Sequence of dnaa_bacsu dnaA (P05648 whole entry): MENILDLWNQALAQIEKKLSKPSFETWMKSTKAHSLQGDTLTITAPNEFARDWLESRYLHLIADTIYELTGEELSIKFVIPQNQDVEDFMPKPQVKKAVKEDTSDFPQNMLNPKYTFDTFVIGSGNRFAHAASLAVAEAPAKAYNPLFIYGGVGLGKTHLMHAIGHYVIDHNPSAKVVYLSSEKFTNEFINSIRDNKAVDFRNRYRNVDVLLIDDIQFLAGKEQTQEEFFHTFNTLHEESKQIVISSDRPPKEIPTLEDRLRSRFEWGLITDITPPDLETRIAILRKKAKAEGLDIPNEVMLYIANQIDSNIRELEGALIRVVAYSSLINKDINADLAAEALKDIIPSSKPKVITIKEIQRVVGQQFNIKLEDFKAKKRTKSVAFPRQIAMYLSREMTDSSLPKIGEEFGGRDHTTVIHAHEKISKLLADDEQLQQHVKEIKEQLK
Sequence of dpo3b_bacsu dnaN (P05649 whole entry): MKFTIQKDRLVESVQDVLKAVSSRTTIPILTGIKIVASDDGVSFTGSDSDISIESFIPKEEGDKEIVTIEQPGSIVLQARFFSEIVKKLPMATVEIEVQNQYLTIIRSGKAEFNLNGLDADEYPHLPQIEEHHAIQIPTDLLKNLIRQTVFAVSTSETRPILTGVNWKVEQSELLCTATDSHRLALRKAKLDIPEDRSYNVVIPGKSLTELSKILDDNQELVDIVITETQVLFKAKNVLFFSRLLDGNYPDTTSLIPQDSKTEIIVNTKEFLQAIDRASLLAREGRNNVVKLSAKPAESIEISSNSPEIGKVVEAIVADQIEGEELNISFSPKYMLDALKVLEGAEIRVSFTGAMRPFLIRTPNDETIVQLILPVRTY
Sequence of tlpa_bacsu tlpA (P39216 whole entry): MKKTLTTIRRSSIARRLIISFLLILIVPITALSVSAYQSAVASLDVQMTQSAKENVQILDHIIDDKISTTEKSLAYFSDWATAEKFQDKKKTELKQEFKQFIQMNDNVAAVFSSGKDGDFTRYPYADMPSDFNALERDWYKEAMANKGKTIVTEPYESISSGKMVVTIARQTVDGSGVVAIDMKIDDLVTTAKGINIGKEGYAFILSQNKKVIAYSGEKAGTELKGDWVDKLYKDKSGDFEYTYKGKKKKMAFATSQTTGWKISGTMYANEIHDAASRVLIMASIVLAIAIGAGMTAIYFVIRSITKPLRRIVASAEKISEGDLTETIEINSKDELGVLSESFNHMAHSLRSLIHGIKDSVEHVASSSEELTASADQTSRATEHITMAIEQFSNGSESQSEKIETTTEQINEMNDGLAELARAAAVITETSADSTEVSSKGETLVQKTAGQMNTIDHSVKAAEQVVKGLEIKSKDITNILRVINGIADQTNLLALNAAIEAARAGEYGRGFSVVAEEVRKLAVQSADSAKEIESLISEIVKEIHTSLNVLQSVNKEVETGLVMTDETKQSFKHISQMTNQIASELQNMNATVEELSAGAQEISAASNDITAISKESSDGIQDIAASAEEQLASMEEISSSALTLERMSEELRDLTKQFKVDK

| Substance | effect of a mutation on the interaction (dpo3b_bacsu dnaN) | effect of a mutation on the interaction (dnaa_bacsu dnaA) | effect of a mutation on the interaction (tlpa_bacsu tlpA) | effect of a mutation on the interaction (acub_bacsu acuB) |
| --- | --- | --- | --- | --- |
| Replication initiation control protein YabA (Bacillus subtilis), P37542 L27A | disrupting interaction strength | disrupting interaction strength | disrupting interaction strength | disrupting interaction strength |
| Replication initiation control protein YabA (Bacillus subtilis), P37542 L110P | disrupting interaction strength |  |  |  |

Next, values leading:

| effect of a mutation on the interaction (dpo3b_bacsu dnaN) | effect of a mutation on the interaction (dnaa_bacsu dnaA) | effect of a mutation on the interaction (tlpa_bacsu tlpA) | effect of a mutation on the interaction (acub_bacsu acuB) | Substance |
| --- | --- | --- | --- | --- |
| disrupting interaction strength |  |  |  | Replication initiation control protein YabA (Bacillus subtilis), P37542 V99A |
|  | disrupting interaction strength |  |  | Replication initiation control protein YabA (Bacillus subtilis), P37542 L86P |
|  | disrupting interaction strength |  |  | Replication initiation control protein YabA (Bacillus subtilis), P37542 N85D |
